# According to paper PMC1557793:
# Read-outs that look alike come from different tables or passages of the source.
# What was measured:
# [1] = target: E1 helicase domain of bovine papillomavirus type-1 (BPV-1) E1 (bovine papillomavirus type-1 (BPV-1)); assay: SEC
# [2] = target: E1 helicase domain of bovine papillomavirus type-1 (BPV-1) E1 (bovine papillomavirus type-1 (BPV-1)); assay: SEC + other: glycerol gradient sedimentation
# [3] = target: T1, E1HD (E1 helicase domain) (bovine papillomavirus type 1 (BPV-1), UniProt P03116 299-605); assay: EMSA
# [4] = target: T1, E1HD (E1 helicase domain); assay: EMSA; remark: listed apart in the source
# [5] = target: T1, E1HD (E1 helicase domain); assay: EMSA; remark: listed apart in the source
# [6] = target: T1, E1HD (E1 helicase domain); assay: EMSA; remark: listed apart in the source
# [7] = target: T1, E1HD (E1 helicase domain); assay: EMSA; remark: listed apart in the source
# [8] = target: T1, E1HD (E1 helicase domain); assay: gel filtration
# E1 helicase domain of bovine papillomavirus type-1 (BPV-1) E1 (domain or fragment), sequence (P03116 whole entry, the tested form may be a part): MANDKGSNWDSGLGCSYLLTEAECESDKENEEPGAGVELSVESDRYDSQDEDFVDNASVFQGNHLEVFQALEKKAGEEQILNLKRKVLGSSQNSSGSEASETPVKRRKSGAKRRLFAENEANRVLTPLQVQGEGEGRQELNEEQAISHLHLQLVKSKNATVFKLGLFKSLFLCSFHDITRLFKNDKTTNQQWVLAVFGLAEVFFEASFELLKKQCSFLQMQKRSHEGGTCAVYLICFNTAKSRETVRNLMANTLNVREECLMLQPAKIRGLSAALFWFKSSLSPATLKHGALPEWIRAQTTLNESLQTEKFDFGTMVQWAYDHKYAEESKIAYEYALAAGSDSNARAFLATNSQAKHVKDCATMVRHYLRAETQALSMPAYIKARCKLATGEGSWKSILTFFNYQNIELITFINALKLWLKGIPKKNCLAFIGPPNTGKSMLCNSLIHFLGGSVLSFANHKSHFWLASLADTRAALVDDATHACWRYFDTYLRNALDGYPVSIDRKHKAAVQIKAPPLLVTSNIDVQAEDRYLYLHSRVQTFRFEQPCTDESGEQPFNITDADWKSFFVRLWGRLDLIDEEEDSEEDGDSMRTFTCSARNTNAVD
# T1 sequence (P03116 299-605): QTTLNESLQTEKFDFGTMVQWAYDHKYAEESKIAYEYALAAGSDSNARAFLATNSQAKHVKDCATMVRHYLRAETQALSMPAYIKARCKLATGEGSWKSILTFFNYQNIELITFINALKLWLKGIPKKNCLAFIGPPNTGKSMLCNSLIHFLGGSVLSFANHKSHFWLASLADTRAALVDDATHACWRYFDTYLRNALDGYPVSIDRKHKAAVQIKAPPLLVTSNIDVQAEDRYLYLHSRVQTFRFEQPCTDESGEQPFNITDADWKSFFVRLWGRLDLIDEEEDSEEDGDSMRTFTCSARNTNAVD
molecule,measurement,setting,value
E1 helicase domain of bovine papillomavirus type-1 (BPV-1) E1 (domain or fragment),percent of protein oligomeric,[1],40%
same,stoichiometry N,[1],6
same,stoichiometry N,[2],6
TTTTTTTTTTTTTTTTTTTTTTTTTTTTTT (ssDNA) [T30],Kd,[3],1.83 ± 0.29 µM
same,Kd,[4],0.297 ± 0.007 µM
TTTTTT (ssDNA) [T6],binding result,[5],no binding
TTTTTTTTTTTTTTTTTTTTTTTTTTTTTTTTTTTTTTTTTT (ssDNA) [T42],binding result,[6],binds
TTTTTTTTTTTTTTTT (ssDNA) [T16],binding result,[7],binds
TTTTTTTTTTTTTTTTTTTT (ssDNA) [T20],binding result,[7],binds
TTTTTTTTTTTTTTTTTT (ssDNA) [T18],binding result,[8],binds
